From patent US20100285988A1 (Memorial Sloan Kettering, published 2010)
Where no end group is shown, it is not given here. [ ]: non-standard residue; d: D form. Bpa = N[C@@H](Cc1ccc(C(=O)c2ccccc2)cc1)C(=O)O

Legend:
PEN-2 = target: T1, PEN-2 (human, UniProt Q9NZ42 1-101); experiment: photoaffinity labeling of HeLa membrane, streptavidin capture, western blot
T1 construct: Subunit of the γ-secretase complex in HeLa membrane
Excerpt: (§1) After the photolyzed membranes were solubilized, biotinylated proteins were captured, eluted and analyzed by western blotting with antibodies against biotin, PS1, nicastrin, PEN-2 and APH-1.

APH-1a = target: T2, APH-1a (human, UniProt Q96BI3 1-265, limits assumed); experiment: as above
T2 construct: Subunit of the γ-secretase complex in HeLa membrane
Excerpt: as §1

- binding result (PEN-2): no binding (tested: 300 nM)
- binding result (APH-1a): no binding (tested: 300 nM)
B1: Aβ17-23BPA^20-biotin (peptide)
peptide: LVF[Bpa]AED-biotin
notes: used at 300 nM; also called biotinylated photoreactive peptide Aβ17-23; photoactive peptide
